Results reported in patent publication US20240189408A1, “COMPOSITIONS AND METHODS FOR REDUCING METHANE EMISSIONS IN RUMINANT POPULATIONS” (Arkea Bio Corp., priority 2022, published 2024).

B1: ARK004: mRNA: SP + WP_016359091.1 (Methanobrevibacter sp. AbM4) + TM/C; SEQ ID NO: 16679 (nucleic acid)
chain: ATGTTCGTGTTCCTCGTGCTCCTGCCCCTCGTCTCCAGCCAGTGCGTGTACCTGATGATAATCCCAATCAACGGGAGTGCACTCCACATCTTCCCCCTCCCGCCCTGGTACATCTGGCTGGGCTTCATCGCAGGACTGATCGCCATCGTCATGGTCACCATAATGCTCTGTTGCATGACCTCCTGCTGTAGCTGCCTGAAAGGCTGTTGCAGCTGCGGGAGCTGCTGCAAATTCGACGAAGACGATAGCGAACCTGTGCTCAAAGGGGTGAAGTTGCATTACACATAGTGA
modifications: listed as DNA
B2: ARK005: mRNA: SP + WP_011033493.1 (Methanosarcina mazei) + TM/C; SEQ ID NO: 16680 (nucleic acid)
chain: ATGTTCGTGTTCCTCGTGCTCCTGCCCCTCGTCTCCAGCCAGTGCGTGTACCTCATGACGGTGGTGCTCGGACACCCATTCCCGCTGACACCCTGGTACATCTGGCTGGGCTTCATCGCAGGACTGATCGCCATCGTCATGGTCACCATAATGCTCTGTTGCATGACCTCCTGCTGTAGCTGCCTGAAAGGCTGTTGCAGCTGCGGGAGCTGCTGCAAATTCGACGAAGACGATAGCGAACCTGTGCTCAAAGGGGTGAAGTTGCATTACACATAGTGA
modifications: listed as DNA
B3: ARK003: mRNA: SP + WP_019264904.1 (Methanobrevibacter smithii) + TM/C; SEQ ID NO: 16678 (nucleic acid)
chain: ATGTTCGTGTTCCTCGTGCTCCTGCCCCTCGTCTCCAGCCAGTGCGTGTACCTCATGACCATACCACTGAACGGCACCCCACTCCACGCCTTCCCACTGCCACCCTGGTACATCTGGCTGGGCTTCATCGCAGGACTGATCGCCATCGTCATGGTCACCATAATGCTCTGTTGCATGACCTCCTGCTGTAGCTGCCTGAAAGGCTGTTGCAGCTGCGGGAGCTGCTGCAAATTCGACGAAGACGATAGCGAACCTGTGCTCAAAGGGGTGAAGTTGCATTACACATAGTGA
modifications: listed as DNA

Experiment: LNP size and polydispersity by DLS (Malvern Panalytical)
Type: physicochemical
Details: LNP polydispersity, mRNA LNPs of Table 18
Description: (§1) To prepare lipid nanoparticles (LNPs), the mRNA stocks were thawed on ice. Nucleic acid concentrations were validated by absorbance at 260 nm using a NanoDrop. The mRNAs were then diluted to a final concentration of 0.35 mg/mL mRNA in Precision Nanosystem's dilution buffer. 10 mL of the dilute mRNAs were loaded into separate Luer lock syringes and all bubbles were removed by gentle tapping. A NanoAssemblr Ignite NxGen Cartridge was loaded into the cartridge slot of the Ignite instrument (FIG. 8A, 801) and one mRNA syringe was attached to the aqueous inlet of the cartridge. 3.3 mL of Genvoy-ILM reagent was loaded into a separate Luer lock syringes and all bubbles were removed by gentle tapping. The Genvoy-ILM syringe was then attached to the organic inlet of the cartridge. LNPs were then generated and collected into a 15 mL conical tube. The process was repeated for the remaining two mRNAs and for a buffer only LNP control (empty). Immediately after LNPs were generated, the samples were loaded into 10K dialysis cartridges, submerged into 1×DPBS (Ca^2+ and Mg^2+-free) to reduce the ethanol concentration to <0.5%. After dialysis the LNPs were recovered from the dialysis cartridges and sterile filtered at 0.2 um. Size and polydispersity (FIG. 8A, 802) were measured using a Malvern Panalytical DLS by diluting 40 uL of LNPs into 360 uL of 1×DPBS. […] Encapsulation efficiency was measured using a RiboGreen assay following Precision Nanosystems recommended protocol using a BioTek Synergy H1 Plate Reader. The resultant encapsulation efficiencies are shown in Table 14, with an average of ˜85%.
(§2) To prepare lipid nanoparticles (LNPs), the mRNA stocks were thawed on ice. Nucleic acid concentrations were validated by absorbance at 260 nm using a NanoDrop. The mRNAs were then diluted to a final concentration of 0.35 mg/mL mRNA in Precision Nanosystem's dilution buffer. 10 mL of the dilute mRNAs were loaded into separate Luer lock syringes and all bubbles were removed by gentle tapping. A NanoAssemblr Ignite NxGen Cartridge was loaded into the cartridge slot of the Ignite instrument and one mRNA syringe was attached to the aqueous inlet of the cartridge. 3.3 mL of Genvoy-ILM reagent was loaded into a separate Luer lock syringes and all bubbles were removed by gentle tapping. The Genvoy-LM syringe was then attached to the organic inlet of the cartridge. LNPs were then generated and collected into a 15 mL conical tube. The process was repeated for the remaining mRNAs and for a buffer only LNP control (empty). Immediately after LNPs were generated, the samples were loaded into 10K dialysis cartridges, submerged into Ix DPBS (Ca^2+ and Mg^2+-free) to reduce the ethanol concentration to <0.5%. After dialysis the LNPs were recovered from the dialysis cartridges and sterile filtered at 0.2 um. Size and polydispersity (FIG. 12 and FIG. 13) were measured using a Malvern Panalytical DLS by diluting 40 uL of LNPs into 360 uL of 1×DPBS. […] Encapsulation efficiency was measured using a RiboGreen assay following Precision Nanosystems recommended protocol using a BioTek Synergy H1 Plate Reader. The resultant encapsulation efficiencies are shown in Table 18, with an average of ˜60%.
(§3) To prepare lipid nanoparticles (LNPs), the mRNA stocks are thawed on ice. Nucleic acid concentrations are validated by absorbance at 260 nm using a NanoDrop. The mRNAs are then diluted to a final concentration of 0.35 mg/mL mRNA in Precision Nanosystem's dilution buffer. 10 mL of the dilute mRNAs are loaded into separate Luer lock syringes and all bubbles are removed by gentle tapping. A NanoAssemblr Ignite NxGen Cartridge is loaded into the cartridge slot of the Ignite instrument and one mRNA syringe is attached to the aqueous inlet of the cartridge. 3.3 mL of Genvoy-ILM reagent is loaded into a separate Luer lock syringes and all bubbles are removed by gentle tapping. The Genvoy-ILM syringe is then attached to the organic inlet of the cartridge. […]

Row | Molecule | PDI
1 | B1 | 0.108
2 | B2 | 0.064
3 | B3 | 0.118

Same assay, conditions: LNP size, mRNA LNPs of Table 18

Row | Molecule | Z-avg.
4 | B1 | 78.82 nm·days
5 | B2 | 78.82 nm·days
6 | B3 | 78.82 nm·days

Experiment: LNP encapsulation efficiency, RiboGreen assay
Type: physicochemical
Details: mRNA LNPs of Table 18
Description: as §1, §2, §3

Row | Molecule | Encapsulation efficiency
7 | B1 | 51%
8 | B2 | 56%
9 | B3 | 40%
